Data on 1 substance can be found in publication PMC7461809.

In this test the target is EcoWI endonuclease. The test is described as follows: SEC; analytical Superdex 200 10/300 GL, 4°C, 0.38 ml/min, 100 mM NaCl, 20 mM Tris-HCl pH 8, 1 mM DTT, 0.1 mM EDTA, 5% glycerol; purified EcoWI at 2.7 mg/ml; relative molecular weight from Kav against standard proteins.

What is called stoichiometry N is a count of units in the complex or per binding partner. EcoWI endonuclease (enzyme) displayed a stoichiometry N of 2.
